{"source": "patent US20110033875A1", "about": "(UNIVERSITY OF GEORGIA RESEARCH FOUNDATION, published 2011)", "key": {"[1]": {"target": "proteins of human ductal invasive breast carcinoma tissue (cases 10406, 10119, 11827, 2417, 2207)", "test": "L-PHA binding to breast tumor tissue proteins, case 2207; scale not defined"}, "[2]": {"target": "proteins of human ductal invasive breast carcinoma tissue (cases 10406, 10119, 11827, 2417, 2207)", "test": "L-PHA binding to breast tumor tissue proteins, case 11827; scale not defined"}, "[3]": {"target": "proteins of human ductal invasive breast carcinoma tissue (cases 10406, 10119, 11827, 2417, 2207)", "test": "L-PHA binding to breast tumor tissue proteins, case 10406; scale not defined"}, "[4]": {"target": "proteins of human ductal invasive breast carcinoma tissue (cases 10406, 10119, 11827, 2417, 2207)", "test": "L-PHA binding to breast tumor tissue proteins, case 10119; scale not defined"}, "[5]": {"target": "proteins of human ductal invasive breast carcinoma tissue (cases 10406, 10119, 11827, 2417, 2207)", "test": "L-PHA binding to breast tumor tissue proteins, case 2417; scale not defined"}, "[6]": {"target": "glycoproteins from mouse endometrioid ovarian tumors nonadherent to Con A", "test": "lectin blot of Con A-unbound mouse tissue glycoproteins with biotinylated E-PHA, densitometry (FIG. 11A lanes 3 and 4)"}, "[7]": {"target": "glycoproteins from human endometrioid ovarian tumors (cases 711, 741, 471) nonadherent to Con A", "test": "lectin blot of Con A-unbound glycoproteins, human case 471, biotinylated AAL, densitometry (FIG. 11B lane 4)"}, "[8]": {"target": "T1, Glucose-regulated protein 78 immunoprecipitated from human ovarian cancer tissue (human, UniProt P11021 19-654)", "T1 construct": "also called GRP78", "T1 sequence (P11021 19-654 limits assumed)": "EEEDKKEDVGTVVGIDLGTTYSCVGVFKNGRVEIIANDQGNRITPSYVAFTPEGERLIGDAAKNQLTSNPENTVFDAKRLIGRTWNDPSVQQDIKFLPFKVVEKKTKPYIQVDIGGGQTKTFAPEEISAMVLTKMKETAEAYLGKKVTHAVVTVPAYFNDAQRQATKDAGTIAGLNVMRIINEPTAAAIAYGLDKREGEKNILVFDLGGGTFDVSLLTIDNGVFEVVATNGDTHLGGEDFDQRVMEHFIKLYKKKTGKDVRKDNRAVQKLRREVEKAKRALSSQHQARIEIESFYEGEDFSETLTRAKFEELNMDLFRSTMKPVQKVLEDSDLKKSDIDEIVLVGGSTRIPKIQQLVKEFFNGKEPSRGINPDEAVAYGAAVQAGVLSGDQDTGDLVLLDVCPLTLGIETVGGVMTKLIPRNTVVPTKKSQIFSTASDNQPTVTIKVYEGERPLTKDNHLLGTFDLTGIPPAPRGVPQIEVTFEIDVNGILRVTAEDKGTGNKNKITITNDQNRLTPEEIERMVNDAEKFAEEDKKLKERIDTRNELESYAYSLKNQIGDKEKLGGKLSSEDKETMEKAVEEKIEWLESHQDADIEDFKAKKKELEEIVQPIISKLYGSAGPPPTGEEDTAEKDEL", "test": "GRP78 immunoprecipitated from ovarian cancer tissue, SDS-PAGE, lectin blot"}, "[9]": {"target": "T2, Thrombospondin 1 from serum and tissue of ovarian cancer patients (human, UniProt P07996 19-1170, limits assumed, core fucosylated N-linked glycans (inferred from AAL reactivity))", "T2 construct": "also called THBS1; AAL-reactive THBS1", "T2 sequence (P07996 19-1170 limits assumed)": "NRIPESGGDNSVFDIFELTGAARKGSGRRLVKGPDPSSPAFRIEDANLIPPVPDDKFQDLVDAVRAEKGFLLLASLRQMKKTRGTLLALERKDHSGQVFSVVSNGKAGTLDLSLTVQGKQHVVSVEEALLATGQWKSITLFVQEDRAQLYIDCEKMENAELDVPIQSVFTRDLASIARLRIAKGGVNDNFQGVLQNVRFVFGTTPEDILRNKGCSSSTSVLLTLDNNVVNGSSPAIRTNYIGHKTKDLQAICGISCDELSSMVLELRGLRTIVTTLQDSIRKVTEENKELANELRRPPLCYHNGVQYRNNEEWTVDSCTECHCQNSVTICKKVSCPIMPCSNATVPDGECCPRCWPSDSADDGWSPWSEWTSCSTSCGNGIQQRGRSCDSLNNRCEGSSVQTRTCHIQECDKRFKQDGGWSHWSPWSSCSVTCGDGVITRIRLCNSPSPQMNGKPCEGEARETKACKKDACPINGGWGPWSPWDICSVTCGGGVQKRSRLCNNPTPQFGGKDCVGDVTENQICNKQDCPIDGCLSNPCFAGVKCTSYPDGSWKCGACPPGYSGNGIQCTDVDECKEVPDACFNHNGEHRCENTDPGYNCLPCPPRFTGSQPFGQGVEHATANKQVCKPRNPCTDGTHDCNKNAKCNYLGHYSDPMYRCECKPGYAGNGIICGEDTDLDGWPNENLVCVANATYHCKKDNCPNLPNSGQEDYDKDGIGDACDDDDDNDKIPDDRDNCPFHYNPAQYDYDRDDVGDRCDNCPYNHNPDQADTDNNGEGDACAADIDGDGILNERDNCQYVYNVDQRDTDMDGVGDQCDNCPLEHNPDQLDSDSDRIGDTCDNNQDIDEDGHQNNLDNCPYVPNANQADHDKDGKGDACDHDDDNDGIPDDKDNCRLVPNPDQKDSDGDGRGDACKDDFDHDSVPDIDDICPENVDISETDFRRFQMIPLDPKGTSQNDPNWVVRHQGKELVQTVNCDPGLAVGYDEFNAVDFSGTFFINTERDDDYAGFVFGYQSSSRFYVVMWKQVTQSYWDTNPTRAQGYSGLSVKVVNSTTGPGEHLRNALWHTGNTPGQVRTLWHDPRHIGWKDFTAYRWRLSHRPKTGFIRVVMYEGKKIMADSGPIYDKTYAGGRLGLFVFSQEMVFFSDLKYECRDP", "test": "biotinylated AAL precipitation from serum, Western blot with anti-THBS1 (FIG. 19B panel 2)"}}}
{"molecule": "Phaseolus vulgaris leukoagglutinin (leukoagglutinating phytohemagglutinin), biotinylated (from UniProt P05087 21-272)", "values": [{"measurement": "L-PHA Level", "setting": "[1]", "result": 9}, {"measurement": "L-PHA Level", "setting": "[2]", "result": 4}, {"measurement": "L-PHA Level", "setting": "[3]", "result": 1}, {"measurement": "L-PHA Level", "setting": "[4]", "result": 4}, {"measurement": "L-PHA Level", "setting": "[5]", "result": 10}]}
{"molecule": "Phaseolus vulgaris erythroagglutinin (erythroagglutinating phytohemagglutinin), biotinylated (from UniProt P05088 22-275)", "values": [{"measurement": "level of E-PHA binding for tumor relative to normal (x relative to normal)", "setting": "[6]", "result": 0.2}]}
{"molecule": "Aleuria aurantia lectin, biotinylated (other, UniProt P18891 2-313, looked up, biotinylated, Commercial fungal lectin; also called AAL) PTEFLYTSKIAAISWAATGGRQQRVYFQDLNGKIREAQRGGDNPWTGGSSQNVIGEAKLFSPLAAVTWKSAQGIQIRVYCVNKDNILSEFVYDGSKWITGQLGSVGVKVGSNSKLAALQWGGSESAPPNIRVYYQKSNGSGSSIHEYVWSGKWTAGASFGSTVPGTGIGATAIGPGRLRIYYQATDNKIREHCWDSNSWYVGGFSASASAGVSIAAISWGSTPNIRVYWQKGREELYEAAYGGSWNTPGQIKDASRPTPSLPDTFIAANSSGNIDISVFFQASGVSLQQWQWISGKGWSIGAVVPTGTPAGW", "values": [{"measurement": "fold increase in the level of AAL binding relative to normal", "setting": "[7]", "result": 7, "unit": "fold"}, {"measurement": "binding result", "setting": "[8]", "result": "no binding"}, {"measurement": "binding result", "setting": "[9]", "result": "binds"}]}
{"molecule": "Phaseolus vulgaris erythroagglutinin (erythroagglutinating phytohemagglutinin), biotinylated (other, Phaseolus vulgaris (red kidney bean), UniProt P05088 22-275, looked up, biotinylated, also called E-PHA; EPHA) ASQTSFSFQRFNETNLILQRDATVSSKGQLRLTNVNDNGEPTLSSLGRAFYSAPIQIWDNTTGAVAASPTSFTFNIDVPNNSGPADGLAFVLLPVGSQPKDKGGLLGLFNNYKYDSNAHTVAVEFDTLYNVHWDPKPRHIGIDVNSIKSIKTTTWDFVKGENAEVLITYDSSTKLLVASLVYPSLKTSFIVSDTVDLKSVLPEWVIVGFTATTGITKGNVETNDILSWSFASKLSDGTTSEALNLANFALNQIL", "values": [{"measurement": "binding result", "setting": "[8]", "result": "no binding"}]}
